According to patent US20240285784A1, “PEPTIDIC CONJUGATES OF SN38 USEFUL IN THE TREATMENT OF CANCER” (FUNDACIÓ INSTITUT DE RECERCA BIOMÈDICA (IRB BARCELONA), priority 2020, published 2024):
*1 amine or outer side, *2 acyl side, *3 side chain or, on linkers, in order; H or OH if unused. Where a SMILES comes first, the peptide text is derived from it. Bridges are numbered along the chain shown (N, C = ends). [ ]: non-standard residue; d: D form. The star is where a group is joined. ξ: configuration not given here. X5 = CCc1c2c(nc3ccc(OC(=O)CCCCn4cc(CCCC(=O)NCCCOCCOCCOCCSCN*)nn4)cc13)-c1cc3c(c(=O)n1C2)COC(=O)[C@]3(O)CC; X4 = CC(O)CC(N[*:1])C(=O)[*:2]; Suc = O=C(CCC(=O)[*:2])[*:1]; ξE = NC(CCC(=O)O)C(=O)O; ξD = NC(CC(=O)O)C(=O)O; ξK = NCCCCC(N)C(=O)O; ξT = CC(O)C(N)C(=O)O; ξDap = NCC(N)C(=O)O; ξP = O=C(O)C1CCCN1; ξA = CC(N)C(=O)O

Tests used:
[1] = Evaluation of solubility in water; type: physicochemical; conditions: at 1 mg/mL
Description: 25 mg of SN38-linker A-MiniAp4 were dissolved in H2O, showing a completely transparent solution. This means that SN38-linker A-MiniAp4 has a solubility in water higher than 5 mg/mL, more than 400-fold the solubility in water described for SN38 (Mol. Pharmaceutics, 2016, 13, 379-390).

[2] = system: patient-derived xenograft of neuroblastoma HSJD-NB-013; conditions: 6 doses of 100 mg/kg intravenous at days 1, 2, 3, 4, 5 and 8; one mouse, two tumors; until day 44

## CCc1c2c(nc3ccc(OC(=O)CCCCn4cc(CCCC(=O)NCCCOCCOCCOCCSCNC(=O)CCC(=O)NC5CNC(=O)CC(C(N)=O)NC(=O)C(CC(C)O)NC(=O)C(C)NC(=O)C(C(C)O)NC(=O)C(CCC(=O)O)NC(=O)C6CCCN6C(=O)C(C)NC(=O)C(CCCCN)NC5=O)nn4)cc13)-c1cc3c(c(=O)n1C2)COC(=O)[C@]3(O)CC (some centres unmarked) [G2B-003 (Ic)] ({X5-Suc}-[ξDap][ξK][ξA][ξP][ξE][ξT][ξA][X4][ξD]-NH2; lactam 1-9)
[1]
  solubility in water: good solubility
[2]
  antitumor response (tumor volume): measurable and long lasting antitumor response
